Test results as given in article PMC5228590.

Target: vimentin (mouse (endogenous in MC-3T3 and in primary calvarial osteoblasts of C57/B6J mice)) (UniProt P20152)
Experiment: co-IP

vimentin (mouse (endogenous in MC-3T3 and in primary calvarial osteoblasts of C57/B6J mice)), sequence (P20152 whole entry): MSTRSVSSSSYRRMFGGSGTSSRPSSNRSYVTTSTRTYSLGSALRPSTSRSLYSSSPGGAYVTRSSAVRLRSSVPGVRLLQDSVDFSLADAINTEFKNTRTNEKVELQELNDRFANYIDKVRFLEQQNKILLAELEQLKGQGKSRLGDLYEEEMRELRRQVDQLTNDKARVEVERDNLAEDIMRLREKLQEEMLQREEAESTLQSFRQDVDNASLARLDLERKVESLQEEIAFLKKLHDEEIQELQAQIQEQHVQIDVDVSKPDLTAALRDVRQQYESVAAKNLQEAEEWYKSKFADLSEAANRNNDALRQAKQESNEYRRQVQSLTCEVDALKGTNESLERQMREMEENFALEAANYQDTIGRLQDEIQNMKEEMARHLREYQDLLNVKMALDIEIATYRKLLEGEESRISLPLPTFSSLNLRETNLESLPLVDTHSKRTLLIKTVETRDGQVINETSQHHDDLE

fold increase of the association with IGF-I: 6.7 fold | percent reduction of the association with the PKCζ pseudosubstrate inhibitor: 62%
Substance: receptor protein tyrosine phosphatase β, B9EKR1 25-2312
